# Results reported in patent publication US20240029824A1 (University of Washington, published 2024).
# T1: DHT03 chain C (SEQ ID NO: 59)
# T1 chain: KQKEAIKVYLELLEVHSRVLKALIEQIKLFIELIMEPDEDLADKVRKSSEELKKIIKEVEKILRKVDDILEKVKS
# T2: DHT03_2arm_A21/B21/C long chain B
# T2 chain: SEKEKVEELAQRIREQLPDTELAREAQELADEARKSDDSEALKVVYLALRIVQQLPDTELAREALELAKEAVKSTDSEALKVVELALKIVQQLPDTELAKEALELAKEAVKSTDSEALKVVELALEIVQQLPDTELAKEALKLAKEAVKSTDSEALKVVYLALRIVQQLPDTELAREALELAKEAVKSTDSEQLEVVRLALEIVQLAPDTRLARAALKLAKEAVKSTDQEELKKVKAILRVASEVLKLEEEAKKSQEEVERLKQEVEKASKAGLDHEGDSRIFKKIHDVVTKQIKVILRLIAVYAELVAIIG
# T3: DHT03 chain C (SEQ ID NO: 65)
# T3 chain: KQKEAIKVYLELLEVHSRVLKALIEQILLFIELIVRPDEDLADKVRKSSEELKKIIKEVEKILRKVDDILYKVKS
# T4: DHT03_2arm_A21/Bt18/C chain B
# T4 chain: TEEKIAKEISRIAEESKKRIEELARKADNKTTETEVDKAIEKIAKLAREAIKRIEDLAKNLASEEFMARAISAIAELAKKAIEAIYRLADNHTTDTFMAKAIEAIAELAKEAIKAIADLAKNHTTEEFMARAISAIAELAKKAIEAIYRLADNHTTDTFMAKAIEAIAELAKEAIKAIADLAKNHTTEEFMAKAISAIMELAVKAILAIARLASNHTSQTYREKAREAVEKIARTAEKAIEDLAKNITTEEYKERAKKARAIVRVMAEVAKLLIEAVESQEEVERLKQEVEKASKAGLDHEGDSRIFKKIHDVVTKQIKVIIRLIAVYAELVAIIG
# T5: DHT03_2arm_A21/B62/C chain B
# T5 chain: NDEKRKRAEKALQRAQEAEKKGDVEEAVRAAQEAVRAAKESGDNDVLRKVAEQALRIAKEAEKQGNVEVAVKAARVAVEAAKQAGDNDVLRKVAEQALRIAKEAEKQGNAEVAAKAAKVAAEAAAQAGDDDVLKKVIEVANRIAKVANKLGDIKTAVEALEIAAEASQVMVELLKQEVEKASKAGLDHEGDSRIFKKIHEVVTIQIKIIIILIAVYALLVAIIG
# T6: DHT03_2arm_A21/B14/C chain B
# T6 chain: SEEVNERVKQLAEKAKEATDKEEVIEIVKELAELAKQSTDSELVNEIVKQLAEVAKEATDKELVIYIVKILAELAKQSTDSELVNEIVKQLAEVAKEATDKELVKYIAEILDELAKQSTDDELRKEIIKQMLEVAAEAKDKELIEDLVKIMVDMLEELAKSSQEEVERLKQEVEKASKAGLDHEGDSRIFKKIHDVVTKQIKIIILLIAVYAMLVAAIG
# T7: DHT03_3arm chain B (B21, SEQ ID NO: 73)
# T7 construct: separately expressed with an N- or C-terminal 6xHis-tag
# T7 chain: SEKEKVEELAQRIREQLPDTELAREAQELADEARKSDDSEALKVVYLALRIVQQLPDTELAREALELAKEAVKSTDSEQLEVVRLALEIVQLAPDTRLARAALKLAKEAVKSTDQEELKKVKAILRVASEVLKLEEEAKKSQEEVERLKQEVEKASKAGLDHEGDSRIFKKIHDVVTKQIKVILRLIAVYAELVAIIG
# T8: DHT03_3arm_A21/B21/C62 chain C
# T8 chain: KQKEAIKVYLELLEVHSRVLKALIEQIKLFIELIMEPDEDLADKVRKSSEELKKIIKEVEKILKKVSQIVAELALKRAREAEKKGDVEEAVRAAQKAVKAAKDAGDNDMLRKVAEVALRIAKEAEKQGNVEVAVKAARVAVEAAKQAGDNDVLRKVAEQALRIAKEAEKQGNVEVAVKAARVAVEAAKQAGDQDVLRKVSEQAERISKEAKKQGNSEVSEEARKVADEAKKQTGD
# T9: DHT03_3arm_A21/B21/C82 chain C
# T9 construct: also called chain C DHR82 fusion; chain C of C3-DHT03-01-DHR82 and C4-DHT03-01-DHR82
# T9 chain: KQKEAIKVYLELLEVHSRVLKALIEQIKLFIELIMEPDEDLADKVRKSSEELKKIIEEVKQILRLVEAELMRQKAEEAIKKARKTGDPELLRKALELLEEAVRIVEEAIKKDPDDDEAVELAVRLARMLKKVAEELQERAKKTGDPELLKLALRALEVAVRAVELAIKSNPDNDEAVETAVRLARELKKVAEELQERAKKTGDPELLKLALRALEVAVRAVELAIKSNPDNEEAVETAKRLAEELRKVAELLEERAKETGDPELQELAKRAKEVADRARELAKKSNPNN
# T10: DHT03_3arm_A21/B21/C59 chain C
# T10 chain: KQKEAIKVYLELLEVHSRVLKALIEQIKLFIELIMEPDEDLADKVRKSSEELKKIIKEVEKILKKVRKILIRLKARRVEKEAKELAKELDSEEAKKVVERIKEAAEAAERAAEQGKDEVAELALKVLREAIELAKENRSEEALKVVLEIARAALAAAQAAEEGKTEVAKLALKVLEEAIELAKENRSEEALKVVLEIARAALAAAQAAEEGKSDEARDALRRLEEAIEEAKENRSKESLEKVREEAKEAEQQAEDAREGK
# T11: DHT03_3arm_A21/B21/C53 chain C
# T11 chain: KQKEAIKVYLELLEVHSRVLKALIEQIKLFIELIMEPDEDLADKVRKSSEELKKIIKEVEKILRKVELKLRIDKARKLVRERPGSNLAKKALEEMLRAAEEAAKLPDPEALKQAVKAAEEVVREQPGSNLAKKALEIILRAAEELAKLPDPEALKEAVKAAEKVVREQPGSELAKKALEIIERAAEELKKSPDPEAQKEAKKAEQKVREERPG
# T12: DHT03_variant_ABCD-1 chain D
# T12 chain: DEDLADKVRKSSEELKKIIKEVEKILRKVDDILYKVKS
# Tests used:
# [1] = target: T1, DHT03 chain C (SEQ ID NO: 59); assay: X-ray crystal structure, 3.35 A
# Method: Purified DHT03_2arm_A21/B21/C (long) protein at a concentration of 41 mg/mL was used to conduct sitting drop, vapor-diffusion crystallization trials using the JCSG Core I-IV screens (NeXtal Biotechnologies). Crystals of DHT03_2arm_A21/B21/C long grew from drops consisting of 100 nL protein plus 100 nL of a reservoir solution consisting of 2M (NH4)2SO4, 0.1M sodium acetate pH4.6 at 18° C., and were cryoprotected by supplementing the reservoir solution with 2.2M sodium malonate pH5. Native diffraction data was collected at APS beamline APS-23-ID-B, indexed to P1 and reduced using XDS⁴⁸. The structure was phased by molecular replacement using Phaser™. The chain A of a set of ˜49 lowest energy predicted models from Rosetta™ were used as search models. Several of these models gave clear solutions. Chain B and Chain C were fitted manually in Coot™ and rigid body refinement by Phenix™. The following model building and refinement were done by Coot™ and Phenix™.
# [2] = target: T2, DHT03_2arm_A21/B21/C long chain B; assay: co-expression, SEC, native MS, SAXS; chains of one ABC heterotrimer
# [3] = target: T3, DHT03 chain C (SEQ ID NO: 65); assay: as above
# [4] = target: T4, DHT03_2arm_A21/Bt18/C chain B; assay: as above
# [5] = target: T5, DHT03_2arm_A21/B62/C chain B; assay: as above
# [6] = target: T6, DHT03_2arm_A21/B14/C chain B; assay: as above
# [7] = target: T7, DHT03_3arm chain B (B21, SEQ ID NO: 73); assay: individually purified chains mixed 1:1:1, heat annealed, SEC
# Text: (§1) To test this idea, an equimolar amount of individually purified A, B, and C of DHT03_2arm_A21/B21/C were mixed together and run through an annealing protocol (see Methods) to allow these interfaces to reassemble in the presence of all components. A monodisperse SEC peak was observed belonging to the ABC heterotrimer state as confirmed by overlap with its SEC co-expressed tricistronic version (FIG. 3d). To explore the use of this approach for building, four different repeat protein fusions to chain C were annealed in the same manner and all four 3-arm heterotrimers were successfully reconstituted. […] The successful reconstitution of these ABC assemblies, following the independent expression and purification of each chain and explicit mixing at a 1:1:1 ratio, enables their use in conjunction with other de novo proteins to mediate the specific assembly of multi-component assemblies. Independent expression also has considerable advantages over tricistronic expression from a gene synthesis perspective as DNA becomes much more difficult and expensive to synthesize with increasing construct size.
# (§2) To test whether the DHT03 components could properly assemble in the presence of other helical hairpin containing chains, as would be the case for more complex assemblies, we chose DHD131, a designed helical hairpin unit heterodimer containing buried hydrogen bond networks¹². […] We evaluated simultaneous reconstitution of DHD131 and DHT03_3arm_A21/B21/C82, since the size difference between the two constructs (if correctly assembled) should be detected by SEC. We separately expressed and individually purified the two chains of the heterodimer and the three chains of the heterotrimer, mixed them at a 1:1:1:1:1 ratio, and carried out annealing and SEC as described above.
# [8] = target: T8, DHT03_3arm_A21/B21/C62 chain C; assay: as above
# Text: as §1, §2
# [9] = target: T9, DHT03_3arm_A21/B21/C82 chain C; assay: as above
# Text: as §1, §2
# [10] = target: T10, DHT03_3arm_A21/B21/C59 chain C; assay: as above
# Text: as §1, §2
# [11] = target: T11, DHT03_3arm_A21/B21/C53 chain C; assay: as above
# Text: as §1, §2
# [12] = target: T12, DHT03_variant_ABCD-1 chain D; assay: native MS; loop-connectivity variant of DHT03, chains of one ABCD heterotetramer
# [13] = target: T1, DHT03 chain C (SEQ ID NO: 59); assay: tricistronic expression, SEC, native MS; chains of one ABC heterotrimer
# Text: Genes encoding 85 heterotrimers in a tricistronic expression vector were obtained, and the proteins were expressed in E. coli and purified via IMAC with only one chain having the 6×His-tag. Nine of the designs (FIG. 3a) had monodisperse SEC peaks (FIG. 3b), were almost exclusively ABC by nMS, and had good SAXS fits to the design models (Table 7). […] Eight of the designs are parallel heterotrimers, while DHTO9 is an antiparallel heterotrimer. […] For 3 other designs, only the ABC heterotrimer was determined to form by nMS (when the respective SEC fraction was analyzed) but the heterotrimer SEC peak was preceded by soluble aggregate that would make building with these constructs difficult downstream. We explored the dependence of cooperativity on connectivity between the three chains by changing the positions of the loops across different helices in DHT03, while keeping the rest of the interface intact. […] The ability to sustain alternate loop closures increases the number of heteromeric building blocks available for future nanostructure assembly applications and may enable rigid fusion of functional domains to the different termini available.
# Samples were analyzed by online buffer exchange native mass spectrometry (nMS) to evaluate sample purity and accurately determine oligomeric states⁴². […]
binder,measurement,setting,value
DHT03_2arm_A21/B21/C long chain A (designed binder) SEKEKVEELAQRIREQLPDTELAREAQELADEARKSDDSEALKVVYLALRIVQQLPDTELAREALELAKEAVKSTDSEALKVVELALKIVQQLPDTELAKEALKLAKEAVKSTDSEALKVVELALEIVQQLPDTELAKEALELAEEAVKSTDSEALKVVKLALEIVQQLPDTELAREALELAKEAVKSTDSEALKVVYLALRIVQQLPDTELARLALELAKKAVEMTAQEVLEIARAALKAAQAFPNTELAELMLRLAEVAARVMKELERNDEEIKKSDELDDESLLEDIVELLKEIIKLWKILVEVSDVMLKLIS,binding result,[1],binds
same,binding result,[2],binds
DHT03 A21 fusion chain A (SEQ ID NO: 63) (designed binder) SEKEKVEELAQRIREQLPDTELAREAQELADEARKSDDSEALKVVYLALRIVQQLPDTELAREALELAKEAVKSTDSEALKVVYLALRIVQQLPDTELARLALELAKKAVEMTAQEVLEIAKAALKAAQAFPNTELAELMLRLAEVAARVMKELERNDEEIKKSDELDDESLLEDIVELLKEIIKLWKILVEVSDVMLKLIS,binding result,[3],binds
same,binding result,[4],binds
same,binding result,[5],binds
DHT03 A21 fusion chain A (SEQ ID NO: 66) (designed binder) SEKEKVEELAQRIREQLPDTELAREAQELADEARKSDDSEALKVVYLALRIVQQLPDTELAREALELAKEAVKSTDSEALKVVYLALRIVQQLPDTELARLALELAKKAVEMTAQEVLAIAKAALKAAQAFPNTELAELMLRLAEVAARVMKELERNDEEIKKSDELDDESLLEDIVELLKEIIKLWKILVEVSDVMLKLIS,binding result,[6],binds
"DHT03_3arm chain A (A21, SEQ ID NO: 72) (designed binder, separately expressed with an N- or C-terminal 6xHis-tag) SEKEKVEELAQRIREQLPDTELAREAQELADEARKSDDSEALKVVYLALRIVQQLPDTELAREALELAKEAVKSTDSEALKVVYLALRIVQQLPDTELARLALELAKKAVEMTAQEVLAIAKAALKAAQAFPNTELAELMLRLAEVAARVMKELERNDEEIKKSDELDDASLLADIVRLLAEIIKLWKILVEVSDVMLKLIS",binding result,[7],binds
same,binding result,[8],binds
same,binding result,[9],binds
same,binding result,[10],binds
same,binding result,[11],binds
DHT03 chain A (designed binder) PEEEKLKELLKELKKVLDRLKKILERNDEEIKKSDELDDESLLEDIVELLKEIIKLWKILVELSDILLKLIS,binding result,[12],binds
same,binding result,[13],binds
